The RNAGym collection of RNA variant scans (doi:10.1073/pnas.2313332121)
Variants at the floor of the assay were thinned out.

B1: TPR 5TU (parent)
chain: GGAUCUUCUCGAUCUAACAAAAAAGACAAAUCUGCCACAAAGCUUGAGAGCAUCUUCGGAUGCAGAGGCGGCAGCCUUCGGUGGCGCGAUAGCGCCAACGUUCUCAACUAUGACACGCAAAACGCGUGCUCCGUUGAAUGGAGUUUAUCAUG

Variants of: B1
Assay: polymerase ribozyme fitness, log enrichment relative to wild type (log ratio); higher = more active; in vitro selection for triplet polymerase activity
Summary of the method: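 Mutant libraries were PCR-built and transcribed for each subunit of a heterodimeric triplet polymerase ribozyme and selected for one round in triplicate at −7 °C, frozen, before gel excision of extended constructs and streptavidin-bead capture. Input and output libraries were Illumina-sequenced, keeping genotypes with ≥10 input reads and ≥1 read per output. Fitness is a logarithmic ratio of genotype to wild-type enrichment, in base 2, using inverse-variance-weighted replicate averages.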

Going from GGAUCUUCUCGAUCUAACAAAAAAGACAAAUCUGCCACAAAGCUGGAGAGCAUCUUCGGAUGCAGAGGCGGCAGCCUUCGGUGGCGUGAUAGCGCCAACGUUCUCAACUAUGACACGCAAAACGCGUGCUCCGUUGAAUGGAGUUUAUCAUG [U45G C87U] to GGAUCUUCUCGAUCUAACAAAAAAGACAAAUCUGCCACAAAGCUGGAGAGCAUCUUCGGAUGCAGAGGCGGCAGCCUUCGGUGGCGCGAUAGAGCCAACGUUCUCAACUAUGUCAUGCAAAACGCGUGCUCCGUUGAAUGGAGUUUAUCAUG [U45G C93A A113U C116U], the “polymerase ribozyme fitness (log ratio)” value falls from -1.32 to at most -4.2.

First: GGAUCUUCUCGAUCUAACAAAAAAGACAAAUCUGCCACAAAGCUGGAGAGCAUUUUCGGAUGCAGAGGCGGCAGCCUUCGGUGGCGCGAUAGCGCCAACGUUCUCAACUAUGACACGCUAAACGCGUGCUCCGUUGAAUGGAGUUGAUCAUG [U45G C54U A119U U146G]
Second: GGAUCUUCUCGAUCUAACAAAAAAGACAAAUCUGCCACAAAGCUGGAGAGCAUCUUCGGAUGCAGAGGCGGCAGCCUUCGGUGGCGCGAUAGCGCCAACGUUCUCAACUAUGAUACGCAAAACGCGUGCUCCGUUGAAUGGAGUUUAUCAUG [U45G C114U]
The “polymerase ribozyme fitness (log ratio)” value of the first is higher: -2.19 for the first, -2.91 for the second.

First: GGAUCUUCUCGAUCUAACAAAAAAGACAAAUCUGCCACAAAGCUGGAGAGCAUCUUAGGAUGCAGAGGCGGCAGCCUUCGGUGGCGCGAUAGAGCCAACGUUCUCAACUAUGACACGCAAAACACGUGCUCCGUUGAAUGGAGUUUAUCAUG [U45G C57A C93A G124A]
Second: GGAUCUUCUCGAUCUAACAAAAAAGACAAAUCUGCCACAAAGCUGGAGAGCAUCUUCGGAUGCAGAGGCGGCAGCCUUCGGUGGCGCGAUAGCGCCAACGUUAUCAACUAUGACACGCAAAACGCGUGCUCCGUUGAAUGGAGUUUAUCUUG [U45G C103A A150U]
The “polymerase ribozyme fitness (log ratio)” value of the first is higher: -3.64 for the first, at most -4.2 for the second.

Compared with GGAUCUUCUCGAUCUAACAAAAAAGACAAAUCUGCCACAAAGCUGGAGAGCAUAAUCGGAUGCAGAGGCGGCAGCCUUCGGUGGGGCGAUAGCGCCAACGUUCUCAACUAUGACACGCAAAACGCGUGCUCCUUUGAAUGGAGUUUAUCAUG [U45G C54A U55A C85G G133U], GGAUCUUCUCGAUCUAACAAAAAAGACAAAUCUGCCACAAAGCUGGAGAGCAUCUUCGGAUGCAGAGGCGGCAGCCUUCGGUGGCGUGAUAGCGCCAACGCUCUCAACUAUGACACGCAAAACGCGUGCUCCGUUGAAUGGAGUUUAUCAUG [U45G C87U U101C] is higher in “polymerase ribozyme fitness (log ratio)” value: at most -4.2 for the first, -3.99 for the second.

GGAUCUUCUCGAUCUAACAAAAAAGACAAAUCUGCCACAAAGCUGGAAAGCAUCUUCGGAUGCAGAGGCGGCAGCCUUCGGUGGCGCCAUAGCGCCAACGUUCUCGACUAUGACACGCAAAACGCGUGCUCCGUUGAAUGGAGUUUAUCAUG [U45G G48A G88C A106G] and GGAUCUUCUCGAUCUAACAAAAAAGACAAAUCUGCCACAAAGCUGGAGAGCAUCUUCGGAUGCAGAGGCGGCAGCCUUCGGUGGCGUGAUAGCGCCAACGUUCUCAACUAUGACACGCAAAACGCGUGCUCCGUUGAAAGGAGUUUAUCAUG [U45G C87U U139A] cannot be ordered by “polymerase ribozyme fitness (log ratio)” value: at most -4.2 for the first, at most -4.2 for the second.

Going from GGAUCUUCUCGAUCUAACAAAAAAGACAAAUCUGCCACAAAGCUGGAGAGCAUCUUCGGAUGCAGAGGCGGCAGCCUUCGGUGGCGCGAUAGAGUCAACGUUCUCAACUAUGACACGCAAAACGCGUGCUCCGUUGAAUGGAGUUUAUCAUG [U45G C93A C95U] to GGAUCUUCUCGAUCUAACAAAAAAGACAAAUCUGCCACAAAGCUGGAGAGCAUUUUCGGAUGCAGAGGCGGCAGCCUUCGGUGGCGCGAUAGCGCCAACGUUCUCAACUGUGACACGCAAAACGCGUGCUCCGUUGAAUGGAGUUUAUCAUG [U45G C54U A110G], the “polymerase ribozyme fitness (log ratio)” value falls from -3.98 to at most -4.2.

Going from GGAUCUUCUCGAUCUAACAAAAAAGACAAAUCUGCCACAAAGCUGGAGAGCAUCUUCGGAUGCAGAGGAGGCAGCCUUCGGUGGCGCGAUAGCGCCAACGUUCUCAACUAUGACACGCAAAACGCGUGCUCCGUUGAAUGGAGUUUAUCAUG [U45G C69A] to GGAUCUUCUCGAUCUAACAAAAAAGACAAAUCUGCCACAAAGCUGGAGAGCAUCUUCGGAUGCAGAGGCGGCAGCAUUCGGUGGCGCGAUAGCGCCAACGUUCUCAACUAUGACACGCAAAACGCGUGGUCCGGUGAAUGGAGUUUAUCAUG [U45G C76A C129G U134G], the “polymerase ribozyme fitness (log ratio)” value falls from -1.95 to at most -4.2.

GGAUCUUCUCGAUCUAACAAAAAAGACAAAUCUGCCACAAAGCUGGAGAGCAUCUUCGGAUGCAGAGGCGGCAGUCUUCGGUGGCGCGAUAGCGCCAACGUUGUCAACUAUGACACGGAAAACGCGUGCUCCGUUGAAUGGAGUUUAUCAUG [U45G C75U C103G C118G] and GGAUCUUCUCGAUCUAACAAAAAAGACAAAUCUGCCACAAAGCUGGAGAGCAUCUUCGGAUGCAGAGGCGGCAGCAUUCGGUGGCACGAUAGCGCCAACGUUCUCAACUAUGACACGCAAAACGCGUGCUCCGUUGAAUGCAGUUUAUGAUG [U45G C76A G86A G141C C149G] cannot be ordered by “polymerase ribozyme fitness (log ratio)” value: at most -4.2 for the first, at most -4.2 for the second.

GGAUCUUCUCGAUCUAACAAAAAAGACAAAUCUGCCACAAAGCUGGAGAGCAUCUUUGGAUGCAGAGGCCGCAGCAUUCGGUGGCGCGAUGGAGCCAACGUUCUCAACUAUGACACGCAAAACGCGUGCUCCGUUGAAUGGAGUUUAUCAUG [U45G C57U G70C C76A A91G C93A] and GGAUCUUCUCGAUCUAACAAAAAAGACAAAUCUGCCACAAAGCUGGAUAGCAUCUUCGGUUGCAGAGGCGGAAGCCUUCCGUGGCGCGAUAGCGCAAACGUGCUCAACUAUGACACGCAAAACGCGUGCUCCGUUGAAUGGAGUUUAUCAUG [U45G G48U A60U C72A G80C C96A U102G] cannot be ordered by “polymerase ribozyme fitness (log ratio)” value: at most -4.2 for the first, at most -4.2 for the second.

In the case of GGAUCUUCUCGAUCUAACAAAAAAGACAAAUCUGCCACAAAGCUGGAGAGCAUCUUCGGAUGCAGAGGCGGCAGCCUUCGGUGGGGCGAUAGCGCCAACGUUCUCAACUAUGACACGCAAAACGCGUGCUCCGUUGAAUGGAGUUUAUCAUG [U45G C85G], the “polymerase ribozyme fitness (log ratio)” value is reported as -3.44.
